Laboratory results taken from article doi:10.1101/2025.08.04.668557.

What was measured:
[1] = test system: Nsp1 N127 (6His-Nsp1(N127)) (SARS-CoV-2); test: MST; details: assay buffer not stated ([…]
[2] = test system: Nsp1 full-length (6His-Nsp1) (SARS-CoV-2); test: MST; details: assay buffer not stated ([…]

CoV2 5' UTR 1-50 RNA
Kd [1]: 77.8 µM | Kd [2]: 6.3 µM

TIAR 5' UTR 1-50 RNA
Kd [1]: 112 µM | Kd [2]: 4.23 µM
